Patent US20200115458A1 (CALIFORNIA INSTITUTE FOR BIOMEDICAL RESEARCH, published 2020)

T1: human ASGPR (asialoglycoprotein receptor) (human, UniProt P07306 62-291)
T1 construct: also called human ASPGR; ASGPR antigen (human)
T1 sequence: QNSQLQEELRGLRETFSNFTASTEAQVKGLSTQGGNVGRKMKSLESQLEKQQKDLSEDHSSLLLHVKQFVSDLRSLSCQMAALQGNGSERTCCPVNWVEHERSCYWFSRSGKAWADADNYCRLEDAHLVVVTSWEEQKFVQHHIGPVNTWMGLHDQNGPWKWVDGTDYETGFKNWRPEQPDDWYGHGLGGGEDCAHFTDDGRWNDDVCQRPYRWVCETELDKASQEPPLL

T2: rat ASGPR (rat, UniProt P02706 61-284)
T2 construct: also called ASGPR antigen (rat)
T2 sequence: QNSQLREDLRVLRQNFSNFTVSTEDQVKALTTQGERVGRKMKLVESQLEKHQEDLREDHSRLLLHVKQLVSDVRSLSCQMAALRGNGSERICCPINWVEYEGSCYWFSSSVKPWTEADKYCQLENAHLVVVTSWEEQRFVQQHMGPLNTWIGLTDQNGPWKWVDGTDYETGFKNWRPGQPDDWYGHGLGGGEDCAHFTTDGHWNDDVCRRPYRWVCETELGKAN

T3: cynomolgus monkey ASGPR (cynomolgus monkey, UniProt P07306 62-291 (human entry))
T3 construct: also called cyno monkey ASGPR; cyno monkey ASPGR
T3 chain: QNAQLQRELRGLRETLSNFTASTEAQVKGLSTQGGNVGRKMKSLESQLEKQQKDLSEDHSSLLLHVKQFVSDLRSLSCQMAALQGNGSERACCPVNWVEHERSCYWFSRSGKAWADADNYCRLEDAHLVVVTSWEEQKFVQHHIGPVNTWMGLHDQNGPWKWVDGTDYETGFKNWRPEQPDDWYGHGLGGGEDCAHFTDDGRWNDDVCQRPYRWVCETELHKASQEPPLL


Key:
[1] = target: T1, human ASGPR (asialoglycoprotein …); assay: ELISA, coated ASGPR antigen (FIG. 3)
Protocol: (§1) The activity of anti-ASGPR within the Ins1-L1-Ab1L IgG (SEQ ID NOS: 79, 29) and Ins1-L1-Ab1H IgG (SEQ ID NOS: 78, 30) fusion proteins for human ASGPR was tested by ELISA assay. Briefly, 100 ng/well ASGPR antigen (human, rat and cyno monkey) was coated on 96-well plate in PBS at 4° C. overnight; the wells were blocked with 2% milk/PBST (0.5% Tween-20 in PBS) at room temperature for 1 hr; antibodies were added in concentrations of 10 nM, 1 nM and 0.1 nM in 2% milk/PBST at room temperature for 2 hr; the wells were washed with PBST 4-5 times; anti-light chain kappa (sigma A7164) in 2% milk/PBST was added and the plate incubated at room temperature for 1 hr; the wells were washed with PBST 4-5 times; and the reaction was developed with QuantaBlu fluorogenic peroxidase substrate (Life technologies, 15169), and quantified using a Spectramax fluorescence plate reader with excitation at 325 nm and emission at 420 nm. […] The figures illustrate that anti-ASGPR antibodies fused to insulin therapeutic peptides retain activity for their antigen ASGPR.

rat ASGPR [2] = target: T2, rat ASGPR; assay: ELISA, 100 ng/well coated ASGPR antigen, antibodies at 10, 1 and 0.1 nM, anti-kappa detection
Protocol: as §1

cynomolgus monkey ASGPR [3] = target: T3, cynomolgus monkey ASGPR; assay: ELISA (FIG. 16)
rat ASGPR [4] = target: T2, rat ASGPR; assay: ELISA (FIG. 16)
[5] = target: T1, human ASGPR (asialoglycoprotein …); assay: ELISA (FIG. 16)
rat ASGPR [6] = target: T2, rat ASGPR; assay: ELISA (FIG. 38)
Protocol: (§2) The activity of anti-ASGPR within Ins1-L3-Ab4 Fab and Ins1-L3-Ab5 Fab fusion proteins for human, rat, and cyno monkey ASGPR was tested by ELISA assay as shown in FIGS. 37-39 as generally described in Example 3. 100 ng/well ASGPR antigen (human, rat, and cyno monkey) was coated on 96-well plate in PBS 4° C. over night, blocked with 2% milk/PBST (0.5% Tween-20 in PBS) at room temperature for 1 hr, and incubated with the fusion proteins at 4 nM, 20 nM, 100 nM, and 500 nM in 2% milk/PBST at room temperature for 2 hr. Wells were then washed with PBST for 4-5 times, incubated with mouse anti-insulin (MA5-12037, ThermoFisher Scientific) in 2% milk/PBST at room temperature for 2 hr, washed with PBST for 4-5 times, incubated with goat anti-mouse IgG-HRP (115-035-008, Jackson ImmunoResearch) for 30 min, and washed with PBST for 4-5 times The plates were developed with QuantaBlu fluorogenic peroxidase substrate (Life technologies, 15169), and quantified using Spectramax fluorescence plate reader with excitation at 325 nm and emission at 420 nm.
(§3) The figures illustrate that anti-ASGPR antibodies fused to insulin therapeutic peptides retain activity for their antigen ASGPR as determined by ELISA assay.

cynomolgus monkey ASGPR [7] = target: T3, cynomolgus monkey ASGPR; assay: ELISA (FIG. 39)
Protocol: as §2, §3

[8] = target: T1, human ASGPR (asialoglycoprotein …); assay: ELISA (FIG. 37)
Protocol: as §2, §3

Row | Binder | binding result [1] | binding result (rat ASGPR [2]) | binding result (cynomolgus monkey ASGPR [3]) | binding result (rat ASGPR [4]) | binding result [5] | also measured
1 | Ins1-L3-Ab4 Fab (Fab, also called Ins1-L3-Ab4L (Fab); Ins1-L3-Ab4L and Ab4H(Fab)) light: FVNQHLCGSDLVEALYLVCGERGFFYTDPTGGGPRRGIVEQCCHSICSLYQLENYCNGGGEAAAKEAAAKEAAAKAGGEIVLTQSPGTLSLSPGERATLSCSASSTISSNYLHWYQQKPGQAPRLLIYRTSDLASGIPDRFSGSGSGTDFTLTISRLEPEDFAVYYCQQGSSIPFTFGQGTKLEIKRTVAAPSVFIFPPSDEQLKSGTASVVCLLNNFYPREAKVQWKVDNALQSGNSQESVTEQDSKDSTYSLSSTLTLSKADYEKHKVYACEVTHQGLSSPVTKSFNRGEC heavy: QVQLVQSGAEVKKPGASVKVSCKASGYTFTNYWMHWVRQAPGQGLEWMGRIDLNSGGTNYNYAQKFQGRVTMTRDTSISTAYMELSRLRSDDTAVYYCARYYGSSWFAYWGQGTLVTVSSASTKGPSVFPLAPSSKSTSGGTAALGCLVKDYFPEPVTVSWNSGALTSGVHTFPAVLQSSGLYSLSSVVTVPSSSLGTQTYICNVNHKPSNTKVDKKVEPKSCDKTHT |  |  | binds | binds | binds | 
2 | Ins1-L3-Ab4L IgG (antibody, Insulin immunoglobulin fusion protein: Ins1-L3-Ab4L light chain fusion paired with the full humanized heavy chain Ab4H; also called Ins1-L3-Ab4 IgG; Ins1-L3-Ab4L and Ab4H) light: FVNQHLCGSDLVEALYLVCGERGFFYTDPTGGGPRRGIVEQCCHSICSLYQLENYCNGGGEAAAKEAAAKEAAAKAGGEIVLTQSPGTLSLSPGERATLSCSASSTISSNYLHWYQQKPGQAPRLLIYRTSDLASGIPDRFSGSGSGTDFTLTISRLEPEDFAVYYCQQGSSIPFTFGQGTKLEIKRTVAAPSVFIFPPSDEQLKSGTASVVCLLNNFYPREAKVQWKVDNALQSGNSQESVTEQDSKDSTYSLSSTLTLSKADYEKHKVYACEVTHQGLSSPVTKSFNRGEC heavy: QVQLVQSGAEVKKPGASVKVSCKASGYTFTNYWMHWVRQAPGQGLEWMGRIDLNSGGTNYNYAQKFQGRVTMTRDTSISTAYMELSRLRSDDTAVYYCARYYGSSWFAYWGQGTLVTVSSASTKGPSVFPLAPSSKSTSGGTAALGCLVKDYFPEPVTVSWNSGALTSGVHTFPAVLQSSGLYSLSSVVTVPSSSLGTQTYICNVNHKPSNTKVDKKVEPKSCDKTHTCPPCPAPPVAGPSVFLFPPKPKDTLMISRTPEVTCVVVDVSHEDPEVKFNWYVDGVEVHNAKTKPREEQYNSTYRVVSVLTVLHQDWLNGKEYKCKVSNKGLPSSIEKTISKAKGQPREPQVYTLPPSRDELTKNQVSLTCLVKGFYPSDIAVEWESNGQPENNYKTTPPVLDSDGSFFLYSKLTVDKSRWQQGNVFSCSVMHEALHNHYTQKSLSLSPGK |  |  | binds | binds | binds | 
3 | Ins1-L3-Ab5 Fab (Fab, As Ins1-L3-Ab4 Fab but with the Ab5H Fab heavy chain (Ab4H mutated at position 50); also called Ins1-L3-Ab5L (Fab)) light: FVNQHLCGSDLVEALYLVCGERGFFYTDPTGGGPRRGIVEQCCHSICSLYQLENYCNGGGEAAAKEAAAKEAAAKAGGEIVLTQSPGTLSLSPGERATLSCSASSTISSNYLHWYQQKPGQAPRLLIYRTSDLASGIPDRFSGSGSGTDFTLTISRLEPEDFAVYYCQQGSSIPFTFGQGTKLEIKRTVAAPSVFIFPPSDEQLKSGTASVVCLLNNFYPREAKVQWKVDNALQSGNSQESVTEQDSKDSTYSLSSTLTLSKADYEKHKVYACEVTHQGLSSPVTKSFNRGEC heavy: QVQLVQSGAEVKKPGASVKVSCKASGYTFTNYWMHWVRQAPGQGLEWMGWIDLNSGGTNYNYAQKFQGRVTMTRDTSISTAYMELSRLRSDDTAVYYCARYYGSSWFAYWGQGTLVTVSSASTKGPSVFPLAPSSKSTSGGTAALGCLVKDYFPEPVTVSWNSGALTSGVHTFPAVLQSSGLYSLSSVVTVPSSSLGTQTYICNVNHKPSNTKVDKKVEPKSCDKTHT |  |  |  |  |  | binding result (rat ASGPR [6]): binds; binding result (cynomolgus monkey ASGPR [7]): binds; binding result [8]: binds

More lines, main results first:

Row | binding result [1] | binding result (rat ASGPR [2]) | binding result (cynomolgus monkey ASGPR [3]) | binding result (rat ASGPR [4]) | binding result [5] | Binder | also measured
4 | binds | binds |  |  |  | Ins1-L1-Ab1L IgG (antibody, also called Ins-L1-Ab1L IgG; Ins1-L1-AbL IgG) light: FVNQHLCGSDLVEALYLVCGERGFFYTDPTGGGPRRGIVEQCCHSICSLYQLENYCNGGGGSETVLTQSPTTMATSPGEKITITCSASSTISSNYLHWYQQKPGFSPKLLIYRTSDLASGVPTRFSGSGSGTSYSLTIGTMEAEDVATYYCQQGSSIPFTFGSGTKLEINRADTAPTVSIFPPSSEQLTSGGASVVCFLNNFYPKDINVKWKIDGSERQNGVLNSWTDQDSKDSTYSMSSTLTLTKDEYERHNSYTCEATHKTSTSPIVKSFNRNEC heavy: QVQLQQPGAELVKPGASVKLSCKASGYTFTNYWMHWVKQRPGRGLEWIGRIDLNSGGTNYNYNEKFKTKATLTVDKPSSTAYMQLSSLTSEDSAVYYCANYYGSSWFAYWGQGTTLTVSSAKTTAPSVYPLAPVCGDTTGSSVTLGCLVKGYFPEPVTLTWNSGSLSSGVHTFPAVLQSDLYTLSSSVTVTSSTWPSQSITCNVAHPASSTKVDKKIEPRGPTIKPCPPCKCPAPNLLGGPSVFIFPPKIKDVLMISLSPIVTCVVVDVSEDDPDVQISWFVNNVEVHTAQTQTHREDYNSTLRVVSALPIQHQDWMSGKEFKCKVNNKDLPAPIERTISKPKGSVRAPQVYVLPPPEEEMTKKQVTLTCMVTDFMPEDIYVEWTNNGKTELNYKNTEPVLDSDGSYFMYSKLRVEKKNWVERNSYSCSVVHEGLHNHHTTKSFSRTPGK | 
5 | binds | binds |  |  |  | Ins1-L1-Ab1H IgG (antibody, also called Ins-L1-Ab1H IgG) heavy: FVNQHLCGSDLVEALYLVCGERGFFYTDPTGGGPRRGIVEQCCHSICSLYQLENYCNGGGGSQVQLQQPGAELVKPGASVKLSCKASGYTFTNYWMHWVKQRPGRGLEWIGRIDLNSGGTNYNYNEKFKTKATLTVDKPSSTAYMQLSSLTSEDSAVYYCANYYGSSWFAYWGQGTTLTVSSAKTTAPSVYPLAPVCGDTTGSSVTLGCLVKGYFPEPVTLTWNSGSLSSGVHTFPAVLQSDLYTLSSSVTVTSSTWPSQSITCNVAHPASSTKVDKKIEPRGPTIKPCPPCKCPAPNLLGGPSVFIFPPKIKDVLMISLSPIVTCVVVDVSEDDPDVQISWFVNNVEVHTAQTQTHREDYNSTLRVVSALPIQHQDWMSGKEFKCKVNNKDLPAPIERTISKPKGSVRAPQVYVLPPPEEEMTKKQVTLTCMVTDFMPEDIYVEWTNNGKTELNYKNTEPVLDSDGSYFMYSKLRVEKKNWVERNSYSCSVVHEGLHNHHTTKSFSRTPGK light: ETVLTQSPTTMATSPGEKITITCSASSTISSNYLHWYQQKPGFSPKLLIYRTSDLASGVPTRFSGSGSGTSYSLTIGTMEAEDVATYYCQQGSSIPFTFGSGTKLEINRADTAPTVSIFPPSSEQLTSGGASVVCFLNNFYPKDINVKWKIDGSERQNGVLNSWTDQDSKDSTYSMSSTLTLTKDEYERHNSYTCEATHKTSTSPIVKSFNRNEC | 
